{"source": "paper PMC13140691", "target": "GST-LcGLO1 (litchi)", "data": [{"substance": "His-PlAvh133 (natural protein)", "values": [{"measurement": "enzymatic activity of His-LcGLO1 in vitro (glycolate oxidase assay, H2O2 read at 520 nm, 30°C) with His-PlAvh133 added", "value": 40, "unit": "% inhibition"}]}]}
